Patent US20240052039A1

Target: recombinant α4β1 integrin (R&D Systems) (UniProt P13612)
Assay: ELISA, recombinant α4β1 immobilised; reference is the anti-VLA-4 scFv

- fold ELISA signal against scFv: 10 times
Substance: Fab of Natalizumab
